Here are results for six molecules from PMC10104851, “SynDLP is a dynamin-like protein of Synechocystis sp. PCC 6803 with eukaryotic features” (Nature Communications, 2023).

Residue numbers refer to the chain shown, from its start. In names and notes the source's numbering stands.

The target of series [1] is T1, SynDLP (Synechocystis sp. PCC 6803, UniProt P73765, K61A).
T1 construct: gene slr0869; full length, C-terminal His tag (pET303-CT/His), E. coli Rosetta-gami 2 (DE3), calculated 93 kDa; oligomer of ~40-50 monomers in solution; model covers aa 1-793, last 19 residues unresolved
T1 sequence (P73765 entry or part of it K61A): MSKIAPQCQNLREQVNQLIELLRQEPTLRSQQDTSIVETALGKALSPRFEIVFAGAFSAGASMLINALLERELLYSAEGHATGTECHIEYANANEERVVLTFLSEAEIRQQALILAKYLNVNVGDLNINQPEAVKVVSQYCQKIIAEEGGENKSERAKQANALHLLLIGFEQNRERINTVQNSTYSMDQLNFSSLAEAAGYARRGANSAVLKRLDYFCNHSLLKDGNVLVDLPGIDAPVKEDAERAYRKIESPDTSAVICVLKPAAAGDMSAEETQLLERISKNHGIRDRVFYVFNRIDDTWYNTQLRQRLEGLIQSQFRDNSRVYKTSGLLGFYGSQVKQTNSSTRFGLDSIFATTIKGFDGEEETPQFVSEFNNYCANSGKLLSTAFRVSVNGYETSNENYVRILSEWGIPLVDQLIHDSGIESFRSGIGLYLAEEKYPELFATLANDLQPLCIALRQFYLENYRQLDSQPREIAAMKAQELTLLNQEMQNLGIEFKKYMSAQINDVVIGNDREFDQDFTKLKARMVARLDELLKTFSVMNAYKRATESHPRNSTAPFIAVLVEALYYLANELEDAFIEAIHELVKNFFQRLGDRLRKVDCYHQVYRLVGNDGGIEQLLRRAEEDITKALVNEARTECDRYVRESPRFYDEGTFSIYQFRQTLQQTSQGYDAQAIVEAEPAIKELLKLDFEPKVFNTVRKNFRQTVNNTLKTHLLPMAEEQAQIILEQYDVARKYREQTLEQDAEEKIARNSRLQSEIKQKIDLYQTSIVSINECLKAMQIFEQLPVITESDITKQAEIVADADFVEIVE
Kind of series: continuous regenerative coupled GTPase assay. The format is biochemical. The settings on record: P-loop mutant.

The target in series [2] is SynDLP_(HPRN-AAAA) (Synechocystis sp. PCC 6803). Kind of series: SEC; analytical SEC, Superose 6 Increase 3.2/300 in reaction buffer (20 mM HEPES pH 7.4, 150 mM NaCl, 7.5 mM KCl, 5 mM MgCl2, 0.2 mM DTT); 30 µl of 10 µM protein; 7 °C; no nucleotide, no membrane. (In gel filtration, larger molecules generally elute earlier.)
Series [3] shares this target.
The target in series [4] is SynDLP, the dynamin-like protein of Synechocystis sp. PCC 6803 (Synechocystis sp. PCC 6803). Kind of series: cryo-EM structure; about 3.0 mg/mL SynDLP in 5 mM MgCl2, 7.5 mM KCl, 20 mM HEPES pH 7.4 (no NaCl), no nucleotide, no membrane; segmented single-particle analysis, C2 symmetry; model of 8 monomers.
The target is the same in series [5].
Substrate in series [6]: Nc1nc2c(ncn2[C@@H]2O[C@H](COP(=O)(O)OP(=O)(O)OP(=O)(O)O)[C@@H](O)[C@H]2O)c(=O)[nH]1
Nature of the series: continuous regenerative coupled GTPase assay (PK/LDH, NADH). It counts as biochemical, Synechocystis sp. PCC 6803. The settings on record: 0.5 µM protein, 20 mM HEPES pH 7.4, 150 mM NaCl, 7.5 mM KCl, 5 mM MgCl2, 0.2 mM DTT, 30 °C, no liposomes. An excerpt: continuous regenerative coupled GTPase assay (PK/LDH, NADH) on […]

For the molecule `Nc1nc2c(ncn2[C@@H]2O[C@H](COP(=O)(O)OP(=O)(O)OP(=O)(O)O)[C@@H](O)[C@H]2O)c(=O)[nH]1` [GTP], the “continuous regenerative coupled GTPase assay” value in series [1] is recorded as “A mutation of a conserved residue in the P-loop (K61A) considerably reduced the GTPase activity”.
As to SynDLP_(HPRN-AAAA) (natural protein), the stoichiometry N in series [2] came to 2. The kcat of GTP hydrolysis (continuous, regenerative, coupled GTPase assay, 0.5 µM protein) in series [3] turned out to be 0.283 s⁻¹.
“SynDLP, the dynamin-like protein of Synechocystis sp. PCC 6803 (natural protein)” had a stoichiometry N in series [4] of 40 to 50 monomers. In addition, in series [5], the kcat of GTP hydrolysis (continuous, regenerative, coupled GTPase assay, 0.5 µM protein) came to 0.743 s⁻¹.

B1: SynDLP (Synechocystis sp. PCC 6803 substr. Kazusa) (protein)
chain: MSKIAPQCQNLREQVNQLIELLRQEPTLRSQQDTSIVETALGKALSPRFEIVFAGAFSAGKSMLINALLERELLYSAEGHATGTECHIEYANANEERVVLTFLSEAEIRQQALILAKYLNVNVGDLNINQPEAVKVVSQYCQKIIAEEGGENKSERAKQANALHLLLIGFEQNRERINTVQNSTYSMDQLNFSSLAEAAGYARRGANSAVLKRLDYFCNHSLLKDGNVLVDLPGIDAPVKEDAERAYRKIESPDTSAVICVLKPAAAGDMSAEETQLLERISKNHGIRDRVFYVFNRIDDTWYNTQLRQRLEGLIQSQFRDNSRVYKTSGLLGFYGSQVKQTNSSTRFGLDSIFATTIKGFDGEEETPQFVSEFNNYCANSGKLLSTAFRVSVNGYETSNENYVRILSEWGIPLVDQLIHDSGIESFRSGIGLYLAEEKYPELFATLANDLQPLCIALRQFYLENYRQLDSQPREIAAMKAQELTLLNQEMQNLGIEFKKYMSAQINDVVIGNDREFDQDFTKLKARMVARLDELLKTFSVMNAYKRATESHPRNSTAPFIAVLVEALYYLANELEDAFIEAIHELVKNFFQRLGDRLRKVDCYHQVYRLVGNDGGIEQLLRRAEEDITKALVNEARTECDRYVRESPRFYDEGTFSIYQFRQTLQQTSQGYDAQAIVEAEPAIKELLKLDFEPKVFNTVRKNFRQTVNNTLKTHLLPMAEEQAQIILEQYDVARKYREQTLEQDAEEKIARNSRLQSEIKQKIDLYQTSIVSINECLKAMQIFEQLPVITESDITKQAEIVADADFVEIVE
notes: full length, C-terminal His tag (pET303-CT/His), E. coli Rosetta-gami 2 (DE3), calculated 93 kDa; oligomer of ~40-50 monomers in solution; model covers aa 1-793, last 19 residues unresolved
Regarding B1, in series [6], the Km stood at 500 ± 40 µM and the kcat worked out at 0.743 ± 0.0167 s⁻¹.

B2: SynDLP (Synechocystis sp. PCC 6803 substr. Kazusa; H552A/N555A/P553A/R554A) (protein)
chain: B1 chain with H552A, P553A, R554A, N555A
notes: as for B1
With B2, in series [6], the Km worked out at 330 ± 20 µM and the turnover number (kcat) is 0.283 ± 0.00333 s⁻¹.

B3: SynDLP (Synechocystis sp. PCC 6803 substr. Kazusa; C777A) (protein)
chain: B1 chain with C777A
notes: as for B1
Turning to B3, in series [6], the Km amounted to 350 ± 40 µM and the turnover number (kcat) stood at 0.462 ± 0.0133 s⁻¹.

As usually defined, the stoichiometry N is a count of units in the complex or per binding partner. Broadly, the Km is the substrate concentration at which the rate is half of its maximum. As a reminder, the kcat is the maximal rate divided by the concentration of active sites.
